Test results as given in patent US20200270325A1 (Merck Sharp & Dohme, published 2020).
Numbered stars: 1 amine (or outer) side, 2 acyl side, 3 side chain; on linkers, the order of the positions; unused ones are H or OH. Square brackets hold non-standard residues; d marks the D form. Side chains are listed from the residue outwards. Ends that are not written are not given here. * marks the point of attachment. Phe(4-CH2NH2) = NCc1ccc(C[C@H](N)C(=O)O)cc1; C18 diacid = O=C(O)CCCCCCCCCCCCCCCCC(=O)*; αMeW = C[C@](N)(Cc1c[nH]c2ccccc12)C(=O)O; C16 diacid = O=C(O)CCCCCCCCCCCCCCC(=O)*; γGlu = O=C(O)[C@H](CCC(=O)[*:2])N[*:1]; Met(O2) = CS(=O)(=O)CC[C@H](N)C(=O)O; αMeD = C[C@](N)(CC(=O)O)C(=O)O; AEEA = NCCOCCOCC(=O)O; Aib = CC(C)(N)C(=O)O

Assays:
[1] = biological target: human GLP-1 receptor (GLP1R) (human, UniProt P43220 24-463); assay: cell-based or functional assay
[2] = biological target: human Glucagon receptor (GCGR) (human, UniProt P47871 26-477); assay: cell-based or functional assay
human Glucagon receptor (GCGR), sequence (P47871 26-477): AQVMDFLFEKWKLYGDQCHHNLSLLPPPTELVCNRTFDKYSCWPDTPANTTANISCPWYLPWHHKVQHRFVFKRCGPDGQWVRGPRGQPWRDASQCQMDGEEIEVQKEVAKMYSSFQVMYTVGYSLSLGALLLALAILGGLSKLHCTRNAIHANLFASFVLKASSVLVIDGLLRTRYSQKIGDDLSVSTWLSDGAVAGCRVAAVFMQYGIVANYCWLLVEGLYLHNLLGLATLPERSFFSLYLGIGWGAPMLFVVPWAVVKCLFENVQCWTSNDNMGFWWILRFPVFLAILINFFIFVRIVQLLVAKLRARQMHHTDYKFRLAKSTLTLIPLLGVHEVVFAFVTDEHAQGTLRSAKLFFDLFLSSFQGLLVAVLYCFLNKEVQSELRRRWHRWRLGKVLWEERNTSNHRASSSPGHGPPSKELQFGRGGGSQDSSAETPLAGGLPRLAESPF

Binder	GLP1R EC50 human [1] [nM]	GCGR EC50 human [2] [nM]
H[Aib]QGTFTSDYSKYLDARAAK([AEEA-γGlu-C18 diacid])DFVQWL[Met(O2)]DT-NH2 (N-terminus assumed; SMILES CC(C)C[C@H](NC(=O)[C@H](Cc1ccc(O)cc1)NC(=O)[C@H](CCCCN)NC(=O)[C@H](CO)NC(=O)[C@H](Cc1ccc(O)cc1)NC(=O)[C@H](CC(=O)O)NC(=O)[C@H](CO)NC(=O)[C@@H](NC(=O)[C@H](Cc1ccccc1)NC(=O)[C@@H](NC(=O)CNC(=O)[C@H](CCC(N)=O)NC(=O)C(C)(C)NC(=O)[C@@H](N)Cc1c[nH]cn1)[C@@H](C)O)[C@@H](C)O)C(=O)N[C@@H](CC(=O)O)C(=O)N[C@@H](C)C(=O)N[C@@H](CCCNC(=N)N)C(=O)N[C@@H](C)C(=O)N[C@@H](C)C(=O)N[C@@H](CCCCNC(=O)COCCOCCNC(=O)CC[C@H](NC(=O)CCCCCCCCCCCCCCCCC(=O)O)C(=O)O)C(=O)N[C@@H](CC(=O)O)C(=O)N[C@@H](Cc1ccccc1)C(=O)N[C@H](C(=O)N[C@@H](CCC(N)=O)C(=O)N[C@@H](Cc1c[nH]c2ccccc12)C(=O)N[C@@H](CC(C)C)C(=O)N[C@@H](CCS(C)(=O)=O)C(=O)N[C@@H](CC(=O)O)C(=O)N[C@H](C(N)=O)[C@@H](C)O)C(C)C) [TP626]	0.77	0.39
H[Aib]QGTFTSDYSKYLDARAAK([AEEA-γGlu-C16 diacid])DFVQWL[Met(O2)][αMeD]T-NH2 (N-terminus assumed; SMILES CC(C)C[C@H](NC(=O)[C@H](Cc1ccc(O)cc1)NC(=O)[C@H](CCCCN)NC(=O)[C@H](CO)NC(=O)[C@H](Cc1ccc(O)cc1)NC(=O)[C@H](CC(=O)O)NC(=O)[C@H](CO)NC(=O)[C@@H](NC(=O)[C@H](Cc1ccccc1)NC(=O)[C@@H](NC(=O)CNC(=O)[C@H](CCC(N)=O)NC(=O)C(C)(C)NC(=O)[C@@H](N)Cc1c[nH]cn1)[C@@H](C)O)[C@@H](C)O)C(=O)N[C@@H](CC(=O)O)C(=O)N[C@@H](C)C(=O)N[C@@H](CCCNC(=N)N)C(=O)N[C@@H](C)C(=O)N[C@@H](C)C(=O)N[C@@H](CCCCNC(=O)COCCOCCNC(=O)CC[C@H](NC(=O)CCCCCCCCCCCCCCC(=O)O)C(=O)O)C(=O)N[C@@H](CC(=O)O)C(=O)N[C@@H](Cc1ccccc1)C(=O)N[C@H](C(=O)N[C@@H](CCC(N)=O)C(=O)N[C@@H](Cc1c[nH]c2ccccc12)C(=O)N[C@@H](CC(C)C)C(=O)N[C@@H](CCS(C)(=O)=O)C(=O)N[C@@](C)(CC(=O)O)C(=O)N[C@H](C(N)=O)[C@@H](C)O)C(C)C) [TP627]	0.25	0.14
H[Aib]QGTFTSDYSKYLDARAAK([AEEA-γGlu-C20‑OH])DFVQWL[Met(O2)][αMeD]T-NH2 [TP629]	2.23	3.17
H[Aib]QGTFTSD[Phe(4-CH2NH2)]([AEEA-AEEA-γGlu-C18 diacid])SKYLDARAAQDFVQ[αMeW]L[Met(O2)]DT-NH2 (N-terminus assumed; SMILES CC(C)C[C@H](NC(=O)[C@H](Cc1ccc(O)cc1)NC(=O)[C@H](CCCCN)NC(=O)[C@H](CO)NC(=O)[C@H](Cc1ccc(CNC(=O)COCCOCCNC(=O)COCCOCCNC(=O)CC[C@H](NC(=O)CCCCCCCCCCCCCCCCC(=O)O)C(=O)O)cc1)NC(=O)[C@H](CC(=O)O)NC(=O)[C@H](CO)NC(=O)[C@@H](NC(=O)[C@H](Cc1ccccc1)NC(=O)[C@@H](NC(=O)CNC(=O)[C@H](CCC(N)=O)NC(=O)C(C)(C)NC(=O)[C@@H](N)Cc1c[nH]cn1)[C@@H](C)O)[C@@H](C)O)C(=O)N[C@@H](CC(=O)O)C(=O)N[C@@H](C)C(=O)N[C@@H](CCCNC(=N)N)C(=O)N[C@@H](C)C(=O)N[C@@H](C)C(=O)N[C@@H](CCC(N)=O)C(=O)N[C@@H](CC(=O)O)C(=O)N[C@@H](Cc1ccccc1)C(=O)N[C@H](C(=O)N[C@@H](CCC(N)=O)C(=O)N[C@@](C)(Cc1c[nH]c2ccccc12)C(=O)N[C@@H](CC(C)C)C(=O)N[C@@H](CCS(C)(=O)=O)C(=O)N[C@@H](CC(=O)O)C(=O)N[C@H](C(N)=O)[C@@H](C)O)C(C)C) [TP625]	0.39	1.3
H[Aib]QGTFTSD[Phe(4-CH2NH2)]([AEEA-AEEA-γGlu-C18 diacid])SKYLDARAAQDFVQWL[Met(O2)][αMeD]T-NH2 (N-terminus assumed; SMILES CC(C)C[C@H](NC(=O)[C@H](Cc1ccc(O)cc1)NC(=O)[C@H](CCCCN)NC(=O)[C@H](CO)NC(=O)[C@H](Cc1ccc(CNC(=O)COCCOCCNC(=O)COCCOCCNC(=O)CC[C@H](NC(=O)CCCCCCCCCCCCCCCCC(=O)O)C(=O)O)cc1)NC(=O)[C@H](CC(=O)O)NC(=O)[C@H](CO)NC(=O)[C@@H](NC(=O)[C@H](Cc1ccccc1)NC(=O)[C@@H](NC(=O)CNC(=O)[C@H](CCC(N)=O)NC(=O)C(C)(C)NC(=O)[C@@H](N)Cc1c[nH]cn1)[C@@H](C)O)[C@@H](C)O)C(=O)N[C@@H](CC(=O)O)C(=O)N[C@@H](C)C(=O)N[C@@H](CCCNC(=N)N)C(=O)N[C@@H](C)C(=O)N[C@@H](C)C(=O)N[C@@H](CCC(N)=O)C(=O)N[C@@H](CC(=O)O)C(=O)N[C@@H](Cc1ccccc1)C(=O)N[C@H](C(=O)N[C@@H](CCC(N)=O)C(=O)N[C@@H](Cc1c[nH]c2ccccc12)C(=O)N[C@@H](CC(C)C)C(=O)N[C@@H](CCS(C)(=O)=O)C(=O)N[C@@](C)(CC(=O)O)C(=O)N[C@H](C(N)=O)[C@@H](C)O)C(C)C) [TP624]	0.89	1
